The test deals with akt1_human AKT1 (UniProt P31749).

The values below come from IntAct's records for PubMed 18562279.

Chain of akt1_human AKT1 (P31749 whole entry): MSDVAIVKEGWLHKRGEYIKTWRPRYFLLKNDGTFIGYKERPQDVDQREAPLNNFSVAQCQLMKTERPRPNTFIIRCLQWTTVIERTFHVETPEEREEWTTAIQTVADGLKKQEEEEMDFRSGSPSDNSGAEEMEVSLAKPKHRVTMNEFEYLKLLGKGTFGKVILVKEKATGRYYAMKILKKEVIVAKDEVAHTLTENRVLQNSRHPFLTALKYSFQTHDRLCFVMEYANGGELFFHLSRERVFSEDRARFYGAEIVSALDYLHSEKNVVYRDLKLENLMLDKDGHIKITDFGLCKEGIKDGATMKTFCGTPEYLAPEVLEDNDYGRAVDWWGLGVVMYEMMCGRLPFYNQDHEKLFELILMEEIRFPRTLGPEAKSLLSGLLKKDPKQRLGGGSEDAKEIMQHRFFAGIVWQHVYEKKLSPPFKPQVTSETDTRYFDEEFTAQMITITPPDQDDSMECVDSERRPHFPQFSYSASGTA

Turning to “THO complex subunit 4 (Homo sapiens) (from UniProt Q86V81) S34A”, the “effect of a mutation on the interaction” value is listed as “disrupting interaction”. Consider “THO complex subunit 4 (Homo sapiens) (from UniProt Q86V81) T219A”, for which the “effect of a mutation on the interaction” value is recorded as “disrupting interaction”.
